Test results reported in patent US20100040541A1 (published 2010).
Where a chain is given by its changes, count along the chain named. Names may count otherwise.

B1: veltuzumab (hA20), humanized anti-CD20 IgG-kappa monoclonal antibody (antibody, V domains shown)
VH: QVQLQQSGAEVKKPGSSVKVSCKASGYTFTSYNMHWVKQAPGQGLEWIGAIYPGNGDTSYNQKFKGKATLTADESTNTAYMELSSLRSEDTAFYYCARSTYYGGDWYFDVWGQGTTVTVSS
VL: DIQLTQSPSSLSASVGDRVTMTCRASSSVSYIHWFQQKPGKAPKPWIYATSNLASGVPVRFSGSGSGTDYTFTISSLQPEDIATYYCQQWTSNPPTFGGGTKLEIK
notes: also called v-mab; Vmab
B2: D101N, mutant of veltuzumab with aspartic acid changed to asparagine at Kabat position 101 in CDRH3 (antibody, name in Kabat numbering, V domains shown)
VH: B1 VH with D109N
VL: B1 VL
notes: It has the same CDRs as rituximab and FRs identical to veltuzumab, with the same constant regions as veltuzumab (hA20-pdHL2 vector); also called D101N-hA20
B3: rituximab, chimeric anti-CD20 monoclonal antibody (IDEC-c2B8) (antibody, V domains shown)
VH: QVQLQQPGAELVKPGASVKMSCKASGYTFTSYNMHWVKQTPGRGLEWIGAIYPGNGDTSYNQKFKGKATLTADKSSSTAYMQLSSLTSEDSAVYYCARSTYYGGDWYFNVWGQGTTVTVSS
VL: QIVLSQSPAILSASPGEKVTMTCRASSSVSYIHWFQQKPGSSPKPWIYATSNLASGVPVRFSGSGSGTSYSLTISRVEAEDAATYYCQQWTSNPPTFGGGTK
notes: Commercial chimeric antibody with human constant regions; also called Rmab; Rituxan
B4: cA20, chimeric anti-CD20 antibody (antibody, V domains shown)
VH: B3 VH with N109D
VL: DIQLTQSPAILSASPGEKVTMTCRASSSVSYIHWFQQKPGSSPKPWIYATSNLASGVPVRFSGSGSGTSYSLTISRVEAEDAATYYCQQWTSNPPTFGGGTKLEIK
notes: Chimeric antibody: murine variable regions on human constant regions
B5: 1F5, murine anti-CD20 monoclonal antibody (antibody, from another filing, V domains shown)
VH: QVQLRQPGAELVKPGASVKMSCKASGYTFTSYNMHWVKQTPGQGLEWIGAIYPGNGDTSYNQKFKGKATLTADKSSSTAYMQLSSLTSEDSAVYYCARSHYGSNYVDYFDYWGQGTTLTVSS
VL: QIVLSQSPAILSASPGEKVTMTCRASSSLSFMHWYQQKPGSSPKPWIYATSNLASGVPARFSGSGSGTSYSLTISRVEAEDAATYFCHQWSSNPLTFGAGTKLELKR

Tests used:
[1] = molecular target: T1, CD20 (human B lymphocyte-restricted differentiation antigen, Bp35) on human Burkitt lymphoma cells (Raji, Daudi, Ramos) (human) (UniProt P11836); test: cell-based or functional assay
T1 sequence (looked up): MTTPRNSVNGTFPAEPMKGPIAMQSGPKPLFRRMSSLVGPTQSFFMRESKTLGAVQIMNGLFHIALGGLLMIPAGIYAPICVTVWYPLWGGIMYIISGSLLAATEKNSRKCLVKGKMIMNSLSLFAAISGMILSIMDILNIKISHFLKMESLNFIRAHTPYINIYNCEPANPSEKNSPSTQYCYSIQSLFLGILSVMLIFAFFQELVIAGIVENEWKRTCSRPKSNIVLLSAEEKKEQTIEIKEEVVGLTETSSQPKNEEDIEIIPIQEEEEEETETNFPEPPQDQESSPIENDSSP

[2] = molecular target: T2, CD20 (human B lymphocyte-restricted differentiation antigen, Bp35) on human Burkitt lymphoma cells (Raji, … (human, UniProt P11836 1-297)); test: flow cytometry dissociation of PE-labeled MAb from Daudi, Ramos and Raji cells at 37 C with excess veltuzumab-Fab'-NEM
T2 construct: whole, on cells; also called cell-surface CD20
T2 sequence (looked up): T1 sequence (looked up)
Procedure: (§1) Cells (Daudi, Raji, or Ramos) in 0.5 mL of CM (phenol red-free RPMI 1640 media supplemented with 10% FBS) at 1×10⁶ cells/mL were incubated with 5 μg of each PE-labeled MAb at room temperature for 30 min, pelleted at 400×g, washed twice with CM, resuspended in 1.5 mL of CM, and split into two 0.75-mL aliquots. […] Subsequent measurements were taken at 30-min intervals. The percent maximal binding, which is the quotient of the MFI at T=X divided by that at T=0, was plotted against time, and the results analyzed by Prism software (GraphPad Software Inc., San Diego, Calif.) to yield the half-life or off-rates.

[3] = molecular target: T2, CD20 (human B lymphocyte-restricted …); test: saturation binding of 125I-labeled MAb to Raji cells, nonlinear regression / Scatchard, replicate assays
Procedure: Raji cells (5×10⁵) were incubated with radioiodinated MAbs in an assay volume of 225 μl, using tissue culture media as diluent, for 1 h at 37° C. or room temperature. Cells then were washed twice with PBS containing 1% horse serum, and cell pellets were counted in a gamma counter. The MAbs were titrated at a 2:3 serial dilution starting with approximately 2×10⁶ cpm/2 μg MAb/tube, run in triplicate. Non-specific binding was measured by including replicate unlabeled MAb.

[4] = molecular target: T2, CD20 (human B lymphocyte-restricted …); test: flow cytometry dissociation from lymphoma cells, with or without a competitive binder
Procedure: as §1

[5] = molecular target: T2, CD20 (human B lymphocyte-restricted …); test: flow cytometry dissociation of PE-labeled MAb from Raji cells at 37 C without competing veltuzumab-Fab'-NEM
Procedure: The off-rate was determined by non-linear regression (one phase exponential decay) and P-values were generated by F-test using GraphPad Prism software.
as §1

[6] = molecular target: anti-idiotype antibodies; test: binding of radioiodinated MAb to anti-idiotype antibodies
[7] = molecular target: T2, CD20 (human B lymphocyte-restricted …); test: flow cytometry dissociation of PE-labeled MAb from Raji cells at 37 C with excess veltuzumab-Fab'-NEM
Procedure: as §1

[8] = molecular target: T1, CD20 (human B lymphocyte-restricted differentiation antigen, Bp35) on human Burkitt lymphoma cells (Raji, Daudi, Ramos) (human); test: flow cytometry dissociation of PE-labeled MAb from Raji cells at 37 C without competing veltuzumab-Fab'-NEM

Molecule	Kd [3] [nM]	fold slower off-rate than rituximab or D101N [4] [fold]	half-life (dissociation) [5] [min]	also measured
hMN-14 IgG (labetuzumab), humanized anti-CEACAM5 monoclonal antibody, negative control				ADCC (% lysis) of Daudi cells with PBMCs, negative control MAb [1]: 9.9 % lysis
B1	6.23 to 12	~2.5	281	fold longer dissociation half-life than rituximab [2]: 2.7 fold; immunoreactivity [6]: > 90%
B2			42	fold faster off-rate than rituximab [7]: 2 fold; fold faster off-rate than veltuzumab [7]: 6 fold
B3	6.7 to 8.63		94	
B4		~2.5		
B5				half-life (dissociation) [8]: 195 min
